Measurements: patent US20020081652A1
pIC50: −log10 of the molar value. Values belong to the substance of their own block, whether it stands above or below them.

What was measured:
[1] = target: mAb 198; experiment: cell-based or functional assay
[2] = target: mAb 198; experiment: competition ELISA: polypeptide preincubated with mAb 198, binding of mAb 198 to coated Torpedo AChR read
[3] = target: mAb 198; experiment: competition ELISA: fragment preincubated with mAb 198, binding of mAb 198 to coated Torpedo AChR read
[4] = target: human muscle-type AChR on TE671 cells (human) (UniProt P02708); experiment: cell-based or functional assay

Substance: Hα1-121 fused to glutathione S-transferase (GST) at the N-terminus (from UniProt P02708 21-141) (receptor)
protection of TE671 cells against AChR degradation induced by mAb 198 (residual α-BTX binding sites) [1]: 100 µg/mL

pIC50 [2]: 7.00
Substance: Hα1-121+p3A fused to glutathione S-transferase (GST) at the N-terminus (receptor)

pIC50 [2]: 6.74 | pIC50 [3]: 5.89
Substance: Hα1-210+p3A fused to glutathione S-transferase (GST) at the N-terminus (from UniProt P08515 1-218) (receptor)

Substance: mAb 198 (antibody)
residual AChR on TE671 cells (α-BTX binding sites) after 3 h incubation with 1 µg/ml mAb [4]: 41%
